Target: endogenous PTEN-induced kinase 1 (PINK1) (human (endogenous in Huh7)) (UniProt Q9BXM7)
Assay: proximity ligation

Chain of UniProt Q9BXM7 (Q9BXM7 78-581): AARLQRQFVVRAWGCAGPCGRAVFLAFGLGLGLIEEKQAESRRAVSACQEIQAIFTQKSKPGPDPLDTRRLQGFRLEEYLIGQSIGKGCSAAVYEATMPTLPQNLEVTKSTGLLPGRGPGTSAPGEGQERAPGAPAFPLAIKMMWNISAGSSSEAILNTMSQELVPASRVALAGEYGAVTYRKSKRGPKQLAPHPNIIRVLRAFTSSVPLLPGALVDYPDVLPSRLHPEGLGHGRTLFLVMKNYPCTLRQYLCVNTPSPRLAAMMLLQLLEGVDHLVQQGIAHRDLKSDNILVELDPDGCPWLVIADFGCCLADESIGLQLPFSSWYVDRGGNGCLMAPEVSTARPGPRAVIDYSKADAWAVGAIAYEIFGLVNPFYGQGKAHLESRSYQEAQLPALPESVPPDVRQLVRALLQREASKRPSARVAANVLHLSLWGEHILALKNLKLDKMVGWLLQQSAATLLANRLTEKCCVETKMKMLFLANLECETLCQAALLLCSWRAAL

Q: “JEV-NS4A made in JEV-infected Huh7 cells (from UniProt P27395 2124-2249) (natural protein)” was tested. Which fluorescent dots per cell (PLA) (fluorescent dots per cell) did it give?
A: 20
